Test results from US20210171613A1 (NATIONAL RESEARCH COUNCIL OF CANADA, published 2021).

Assays:
[1] = molecular target: T1, Clostridium difficile toxin A (TcdA) (Clostridium difficile, UniProt P16154 1-2710); assay: SPR (Biacore 3000), VHH over immobilized TcdA; binding free energy difference relative to parent VHH
T1 construct: mature; also called full-length TcdA
Protocol: (§1) Before surface plasmon resonance (SPR) binding experiments, IMAC-purified VHHs were subjected to de-salting and further purification by size-exclusion chromatography (SEC). Approximately 500 μg of each VHH was injected over a Superdex 75 Increase 10/300 GL SEC column (GE Healthcare) in Biacore running buffer HBS-EP (10 mM HEPES pH 7.4, 150 mM NaCl, 3 mM EDTA, 0.005% (v/v) P20; GE Healthcare) under the control of an ÄKTA FPLC at 0.8 mL/min. Monomeric VHH fractions were collected and analyzed for binding to TcdA using a Biacore 3000 SPR instrument (GE Healthcare). Approximately 4,500 resonance units (RUs) of TcdA (List Biological Laboratories, Campbell, Calif.) were immobilized on a CM5 sensor chip (GE Healthcare) using the conditions previously described (Hussack et al, 2011). HBS-EP running buffer was used for all binding studies and regeneration of TcdA surfaces. Next, various dilution ranges of VHHs (as low as 10 nM-0.5 nM to as high as 5 μM-50 nM) were injected over immobilized TcdA at a flow rate of 40 μL/min with 120 s contact time and 600 s dissociation. Reference-subtracted sensorgrams were analyzed with BIAevaluation software (GE Healthcare) and fit to a 1:1 binding model. In cases where rapid kₒₙ and koff rate constants were observed, equilibrium dissociation constants (KDs) were determined by steady-state analysis.

[2] = molecular target: T1, Clostridium difficile toxin A (TcdA); assay: SPR (Biacore 3000), VHH over immobilized TcdA, 1:1 fit
Protocol: as §1

[3] = molecular target: T1, Clostridium difficile toxin A (TcdA); assay: SPR (Biacore 3000), VHH over immobilized TcdA; ratio of parent KD to mutant KD
Protocol: as §1

T1 sequence (P16154 whole entry): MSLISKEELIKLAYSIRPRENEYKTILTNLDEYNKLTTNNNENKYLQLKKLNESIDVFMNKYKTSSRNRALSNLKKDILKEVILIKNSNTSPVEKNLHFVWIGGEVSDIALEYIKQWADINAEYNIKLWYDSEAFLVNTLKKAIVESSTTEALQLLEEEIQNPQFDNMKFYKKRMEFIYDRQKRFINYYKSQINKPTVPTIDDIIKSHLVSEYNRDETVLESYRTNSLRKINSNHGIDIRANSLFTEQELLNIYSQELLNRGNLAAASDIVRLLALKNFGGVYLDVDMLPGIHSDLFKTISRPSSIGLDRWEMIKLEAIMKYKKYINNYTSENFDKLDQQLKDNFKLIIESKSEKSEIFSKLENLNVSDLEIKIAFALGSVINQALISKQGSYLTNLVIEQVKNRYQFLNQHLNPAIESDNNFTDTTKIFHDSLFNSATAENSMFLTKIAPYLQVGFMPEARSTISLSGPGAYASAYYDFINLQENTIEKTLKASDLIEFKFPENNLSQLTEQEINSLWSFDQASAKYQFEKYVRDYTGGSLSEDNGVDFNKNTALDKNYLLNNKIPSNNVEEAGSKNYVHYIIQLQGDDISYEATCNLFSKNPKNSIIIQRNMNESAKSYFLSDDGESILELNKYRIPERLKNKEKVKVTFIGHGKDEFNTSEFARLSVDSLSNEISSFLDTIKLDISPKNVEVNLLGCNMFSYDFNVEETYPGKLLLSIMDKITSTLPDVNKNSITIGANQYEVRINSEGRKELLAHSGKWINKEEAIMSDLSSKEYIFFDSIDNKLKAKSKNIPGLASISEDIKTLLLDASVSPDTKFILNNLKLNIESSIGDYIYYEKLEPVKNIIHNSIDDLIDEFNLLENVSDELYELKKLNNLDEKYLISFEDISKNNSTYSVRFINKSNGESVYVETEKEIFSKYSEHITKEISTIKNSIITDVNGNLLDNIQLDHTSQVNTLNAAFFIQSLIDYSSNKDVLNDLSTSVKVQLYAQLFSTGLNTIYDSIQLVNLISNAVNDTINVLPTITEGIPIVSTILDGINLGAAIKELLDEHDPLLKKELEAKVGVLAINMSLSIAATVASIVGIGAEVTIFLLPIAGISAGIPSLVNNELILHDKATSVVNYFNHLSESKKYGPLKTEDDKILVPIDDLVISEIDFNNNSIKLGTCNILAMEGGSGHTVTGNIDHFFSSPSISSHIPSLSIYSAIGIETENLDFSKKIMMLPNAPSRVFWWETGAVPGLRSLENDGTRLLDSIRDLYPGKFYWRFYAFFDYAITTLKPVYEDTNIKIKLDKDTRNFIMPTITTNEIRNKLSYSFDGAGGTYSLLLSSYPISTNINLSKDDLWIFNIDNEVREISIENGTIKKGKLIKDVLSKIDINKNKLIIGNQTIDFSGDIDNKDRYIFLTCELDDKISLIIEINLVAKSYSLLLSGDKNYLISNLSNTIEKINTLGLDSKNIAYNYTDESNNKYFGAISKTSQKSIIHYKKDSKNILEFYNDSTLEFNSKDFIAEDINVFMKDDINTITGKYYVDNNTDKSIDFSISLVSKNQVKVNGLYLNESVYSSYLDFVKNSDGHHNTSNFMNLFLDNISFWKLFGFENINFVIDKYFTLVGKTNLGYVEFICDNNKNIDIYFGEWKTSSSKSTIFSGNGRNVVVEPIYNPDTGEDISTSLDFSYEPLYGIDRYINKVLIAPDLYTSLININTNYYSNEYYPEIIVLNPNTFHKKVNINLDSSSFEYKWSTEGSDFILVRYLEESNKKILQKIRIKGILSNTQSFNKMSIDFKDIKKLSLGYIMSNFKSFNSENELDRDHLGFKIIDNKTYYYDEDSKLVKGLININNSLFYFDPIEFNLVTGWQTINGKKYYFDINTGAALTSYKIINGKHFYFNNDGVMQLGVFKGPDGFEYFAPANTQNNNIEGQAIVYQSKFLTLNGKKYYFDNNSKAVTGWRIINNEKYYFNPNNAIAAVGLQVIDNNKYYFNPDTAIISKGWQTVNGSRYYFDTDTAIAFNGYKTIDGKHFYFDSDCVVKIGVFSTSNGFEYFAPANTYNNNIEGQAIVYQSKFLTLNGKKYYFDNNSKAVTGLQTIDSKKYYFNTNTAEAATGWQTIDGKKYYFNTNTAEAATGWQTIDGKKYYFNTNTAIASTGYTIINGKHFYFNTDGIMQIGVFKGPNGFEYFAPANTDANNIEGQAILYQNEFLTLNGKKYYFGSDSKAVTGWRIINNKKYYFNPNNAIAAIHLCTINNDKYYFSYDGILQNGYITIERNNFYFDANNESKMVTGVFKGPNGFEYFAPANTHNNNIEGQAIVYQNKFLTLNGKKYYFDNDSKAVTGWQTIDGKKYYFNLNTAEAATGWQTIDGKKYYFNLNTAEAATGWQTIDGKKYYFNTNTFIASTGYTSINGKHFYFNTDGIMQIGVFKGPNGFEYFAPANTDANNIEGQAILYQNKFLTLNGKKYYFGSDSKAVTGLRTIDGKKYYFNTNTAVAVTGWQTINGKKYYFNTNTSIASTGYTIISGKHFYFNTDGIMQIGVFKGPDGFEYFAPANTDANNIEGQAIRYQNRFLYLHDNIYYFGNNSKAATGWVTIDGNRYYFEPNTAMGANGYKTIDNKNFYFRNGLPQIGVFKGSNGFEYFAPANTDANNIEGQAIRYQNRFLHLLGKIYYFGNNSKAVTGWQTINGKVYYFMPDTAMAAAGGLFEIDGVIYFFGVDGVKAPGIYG

B1: A26.8 VHH mutant T54W (VHH, not shown: small tags and cut ends)
VHH: QVKLEESGGGLVQAGGSLRLSCAASERTFSRYPVAWFRQAPGAEREFVAVISSWGTSTYYADSVKGRFTISRDNAKVTVYLQMNNLKREDTAVYFCAVNSQRTRLQDPNEYDYWGQGTQVTVSS
Work on B1 yielded a ΔΔG [1] of 0.37 kcal/mol, a Kd [2] of 35 nM and a koff [2] of 0.0561 s⁻¹. For the same binder, the kon [2] was 1.61e+06 M⁻¹ s⁻¹ and the “KD^WT/KD” value [3] was 0.5.

B2: A26.8-Q101K,T103R (VHH, not shown: small tags and cut ends)
VHH: QVKLEESGGGLVQAGGSLRLSCAASERTFSRYPVAWFRQAPGAEREFVAVISSTGTSTYYADSVKGRFTISRDNAKVTVYLQMNNLKREDTAVYFCAVNSKRRRLQDPNEYDYWGQGTQVTVSS
With B2 the ΔΔG [1] was -0.87 kcal/mol, the Kd [2] was 4.2 nM and the koff [2] was 0.0226 s⁻¹. For the same binder, the kon [2] was 5.45e+06 M⁻¹ s⁻¹ and the “KD^WT/KD” value [3] was 4.5.

B3: A26.8-Q101K,T103K (VHH, not shown: small tags and cut ends)
VHH: QVKLEESGGGLVQAGGSLRLSCAASERTFSRYPVAWFRQAPGAEREFVAVISSTGTSTYYADSVKGRFTISRDNAKVTVYLQMNNLKREDTAVYFCAVNSKRKRLQDPNEYDYWGQGTQVTVSS
B3 was tested, and the ΔΔG [1] was -0.48 kcal/mol, the Kd [2] was 8.21 nM and the koff [2] was 0.0396 s⁻¹. For the same binder, the kon [2] was 4.96e+06 M⁻¹ s⁻¹ and the “KD^WT/KD” value [3] was 2.3.

B4: A26.8-T54R (VHH, not shown: small tags and cut ends)
VHH: QVKLEESGGGLVQAGGSLRLSCAASERTFSRYPVAWFRQAPGAEREFVAVISSRGTSTYYADSVKGRFTISRDNAKVTVYLQMNNLKREDTAVYFCAVNSQRTRLQDPNEYDYWGQGTQVTVSS
In the case of B4, the ΔΔG [1] is reported as -0.2 kcal/mol, the Kd [2] is reported as 13.2 nM and the koff [2] is reported as 0.044 s⁻¹. The kon [2] was 3.55e+06 M⁻¹ s⁻¹ and the “KD^WT/KD” value [3] was 1.4.

B5: A26.8-T56I (VHH, not shown: small tags and cut ends)
VHH: QVKLEESGGGLVQAGGSLRLSCAASERTFSRYPVAWFRQAPGAEREFVAVISSTGISTYYADSVKGRFTISRDNAKVTVYLQMNNLKREDTAVYFCAVNSQRTRLQDPNEYDYWGQGTQVTVSS
In the case of B5, the ΔΔG [1] is reported as -0.19 kcal/mol, the Kd [2] is reported as 13.6 nM and the koff [2] is reported as 0.0262 s⁻¹. For the same binder, the kon [2] was 1.94e+06 M⁻¹ s⁻¹ and the “KD^WT/KD” value [3] was 1.4.

B6: A26.8-N109R (VHH, not shown: small tags and cut ends)
VHH: QVKLEESGGGLVQAGGSLRLSCAASERTFSRYPVAWFRQAPGAEREFVAVISSTGTSTYYADSVKGRFTISRDNAKVTVYLQMNNLKREDTAVYFCAVNSQRTRLQDPREYDYWGQGTQVTVSS
B6 showed a ΔΔG [1] of -0.17 kcal/mol, a Kd [2] of 13.9 nM and a koff [2] of 0.0268 s⁻¹. The kon [2] was 1.95e+06 M⁻¹ s⁻¹ and the “KD^WT/KD” value [3] was 1.3.

B7: A26.8 VHH mutant T54Y (VHH, not shown: small tags and cut ends)
VHH: QVKLEESGGGLVQAGGSLRLSCAASERTFSRYPVAWFRQAPGAEREFVAVISSYGTSTYYADSVKGRFTISRDNAKVTVYLQMNNLKREDTAVYFCAVNSQRTRLQDPNEYDYWGQGTQVTVSS
B7 was tested, and the ΔΔG [1] was 0.43 kcal/mol, the Kd [2] was 38.9 nM and the koff [2] was 0.0694 s⁻¹. For the same binder, the kon [2] was 1.81e+06 M⁻¹ s⁻¹ and the “KD^WT/KD” value [3] was 0.5.

B8: A26.8-T56R, Q101K, T103K (VHH, not shown: small tags and cut ends)
VHH: QVKLEESGGGLVQAGGSLRLSCAASERTFSRYPVAWFRQAPGAEREFVAVISSTGRSTYYADSVKGRFTISRDNAKVTVYLQMNNLKREDTAVYFCAVNSKRKRLQDPNEYDYWGQGTQVTVSS
Work on B8 yielded a ΔΔG [1] of -1.03 kcal/mol, a Kd [2] of 3.19 nM and a koff [2] of 0.0467 s⁻¹. The kon [2] was 1.47e+07 M⁻¹ s⁻¹ and the “KD^WT/KD” value [3] was 5.9.

B9: A26.8-T56R, Q101K (VHH, not shown: small tags and cut ends)
VHH: QVKLEESGGGLVQAGGSLRLSCAASERTFSRYPVAWFRQAPGAEREFVAVISSTGRSTYYADSVKGRFTISRDNAKVTVYLQMNNLKREDTAVYFCAVNSKRTRLQDPNEYDYWGQGTQVTVSS
B9 showed a ΔΔG [1] of -0.88 kcal/mol, a Kd [2] of 4.13 nM and a koff [2] of 0.0497 s⁻¹. For the same binder, the kon [2] was 1.24e+07 M⁻¹ s⁻¹ and the “KD^WT/KD” value [3] was 4.5.

B10: A26.8-Q101K,T103M (VHH, not shown: small tags and cut ends)
VHH: QVKLEESGGGLVQAGGSLRLSCAASERTFSRYPVAWFRQAPGAEREFVAVISSTGTSTYYADSVKGRFTISRDNAKVTVYLQMNNLKREDTAVYFCAVNSKRMRLQDPNEYDYWGQGTQVTVSS
Binder B10 has a ΔΔG [1] of -0.49 kcal/mol, a Kd [2] of 8.02 nM and a koff [2] of 0.0265 s⁻¹. For the same binder, the kon [2] was 3.31e+06 M⁻¹ s⁻¹ and the “KD^WT/KD” value [3] was 2.3.
